{"source": "patent US20200010513A1", "test_in_all_cases": "cell-based or functional assay", "key": {"[1]": {"molecular_target": "TM-CIBN-NES-TEV-N-BLITz-1-tTA"}, "[2]": {"molecular_target": "TM-CIBN-TEV-N-TEVseq-tTA with intact TEVseq without a fusion to the AsLOV2 protein"}, "[3]": {"molecular_target": "TM-CIBN-NES-TEV-N-BLITz-6-tTA"}}, "data": [{"substance": "NES-CRY2PHR-TEV-C", "values": [{"measurement": "SEAP assay, fold gene expression by blue light (HEK293T cells)", "setting": "[1]", "value": "> 20", "unit": "fold"}, {"measurement": "SEAP assay, fold change of gene expression by blue light (HEK293T cells)", "setting": "[2]", "value": 1.4, "unit": "fold"}, {"measurement": "SEAP assay, fold gene expression by blue light (HEK293T cells)", "setting": "[3]", "value": "> 20", "unit": "fold"}]}]}
